Paper PMC9060471

Experiments:
[1] = target: 6xHis-TLX ligand-binding domain, Q9Y466; assay: AlphaScreen or HTRF; ALPHA; atrophin peptide on donor beads, TLX ligand-binding domain on acceptor beads; competition with untagged atrophin peptide
[2] = target: 6xHis-TLX ligand-binding domain, Q9Y466; assay: BLI; 6xHis-TLX LBD on Ni-NTA biosensors, Octet Red 96; atrophin peptide in solution

6xHis-TLX ligand-binding domain, Q9Y466, sequence (Q9Y466 155-385): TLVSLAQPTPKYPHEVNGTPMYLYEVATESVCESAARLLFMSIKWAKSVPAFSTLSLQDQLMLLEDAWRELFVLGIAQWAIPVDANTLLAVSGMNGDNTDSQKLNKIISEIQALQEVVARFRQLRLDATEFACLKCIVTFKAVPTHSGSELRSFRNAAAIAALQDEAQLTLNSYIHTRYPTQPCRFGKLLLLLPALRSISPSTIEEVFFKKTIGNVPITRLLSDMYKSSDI

B1: atrophin corepressor peptide (untagged) (peptide)
chain: PPYADTPALRQLSEYARPHVAFSP
modifications: not checked
[1]
  EC50: 1.3 µM
[2]
  Kd: 14.2 µM
